For this test, the target named is AcGFP1-JAK3 (pAcGFP1-JAK3) (Bos taurus) (UniProt E1BEL4). In words: co-IP; Matchmaker Co-IP system; ProLabel enzymatic activity (luminescence, ProLabel detection kit) in protein samples of HEK cells co-transfected with pAcGFP1-JAK3 and a pProLabel prey; read 25 min after addition of the substrate; against the negative control.
UniProt E1BEL4, sequence (E1BEL4 entry or part of it): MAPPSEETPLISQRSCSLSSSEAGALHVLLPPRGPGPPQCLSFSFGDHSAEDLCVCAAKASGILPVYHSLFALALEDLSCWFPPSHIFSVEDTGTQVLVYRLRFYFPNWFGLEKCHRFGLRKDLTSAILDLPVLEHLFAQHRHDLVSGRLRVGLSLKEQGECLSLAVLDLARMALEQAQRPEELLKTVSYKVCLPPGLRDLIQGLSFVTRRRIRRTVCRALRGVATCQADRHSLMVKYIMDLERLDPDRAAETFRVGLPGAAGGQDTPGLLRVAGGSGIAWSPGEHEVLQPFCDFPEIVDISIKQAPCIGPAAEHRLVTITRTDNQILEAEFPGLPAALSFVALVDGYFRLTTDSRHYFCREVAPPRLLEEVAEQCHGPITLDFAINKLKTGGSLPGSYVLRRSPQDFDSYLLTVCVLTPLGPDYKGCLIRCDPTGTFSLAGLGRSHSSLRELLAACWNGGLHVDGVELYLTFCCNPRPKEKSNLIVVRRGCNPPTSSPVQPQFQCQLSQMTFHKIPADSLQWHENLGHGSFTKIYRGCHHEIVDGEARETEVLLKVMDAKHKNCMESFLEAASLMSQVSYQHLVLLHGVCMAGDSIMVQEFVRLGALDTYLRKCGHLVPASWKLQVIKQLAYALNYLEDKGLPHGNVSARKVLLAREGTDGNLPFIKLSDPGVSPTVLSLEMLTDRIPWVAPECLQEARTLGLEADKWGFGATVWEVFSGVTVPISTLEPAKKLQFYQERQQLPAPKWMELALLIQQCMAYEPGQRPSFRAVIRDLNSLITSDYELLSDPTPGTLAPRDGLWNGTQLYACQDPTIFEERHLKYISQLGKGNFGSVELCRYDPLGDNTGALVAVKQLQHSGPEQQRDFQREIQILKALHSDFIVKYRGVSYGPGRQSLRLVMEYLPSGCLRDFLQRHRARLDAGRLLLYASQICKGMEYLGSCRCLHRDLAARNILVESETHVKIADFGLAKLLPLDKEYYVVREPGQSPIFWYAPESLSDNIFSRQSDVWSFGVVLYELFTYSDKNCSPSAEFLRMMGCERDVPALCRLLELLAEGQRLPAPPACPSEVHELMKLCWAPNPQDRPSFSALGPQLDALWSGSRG
The substance “ProLabel-INHBA (pProLabel-INHBA) (from UniProt P07995 21-425) (natural protein)” displayed a fold induction in ProLabel enzymatic activity as compared to the negative control of 34 fold.

As for “ProLabel-CDKN1B (pProLabel-CDKN1B) (from UniProt A6QLS3 1-198) (natural protein)”, the fold induction in ProLabel enzymatic activity as compared to the negative control worked out at 15 fold.

“ProLabel-LEPROTL1 (pProLabel-LEPROTL1) (from UniProt Q32PD8 1-131) (natural protein)”: the fold induction in ProLabel enzymatic activity as compared to the negative control was 42 fold.

Source of the values: paper PMC5086056.
